The record followed here is publication PMC10173203 (Science translational medicine, 2021).

This experiment addresses HA of A/Michigan/45/2015 H1N1 virus (Influenza A virus A/Michigan/45/2015 …, UniProt A0A1J0CXU0, strain). The experiment can be described thus: ELISA. Background: An ELISA detects its analyte on a solid surface through an enzyme-linked reagent.

B1: 047–09 4B06 mAb (human IgG1) (antibody, V domains shown)
VH: EVQLLESGGGLVQPGGSLRLSCAASGFIFGHFAMTWVRQAPGKGLEWLSAISGGGLNTYYAESVKGRFTMSRDNSKNTLYLQMGSLRAEDAAVYYCARFDSSGYNYVRGMVVWGQGTAV
VL: DIQMTQSPSSLSVSIGDRITITCQASQDIKNYLGWYQHKPGKAPKLLIYHVSNLEAGVPSRFSGSGSGTDFTFTISSLQPEDIGTYYCHQCYNLPYTFGQGTKVEIK
Take B1: the binding result is reported as “binds”.
